According to PMC11018607, “A widely conserved protein Rof inhibits transcription termination factor Rho and promotes Salmonella virulence program” (Nature Communications, 2024):

Molecular target: T1, Transcription termination factor Rho (E. coli) (E. coli, UniProt P0AG30 1-419)
T1 construct: Transcription termination factor Rho, E. coli, expressed from pET24b-rho; no tag is mentioned; In the cryo-EM map density was absent for residues 280-284; also called EcRho; Rho hexamer; source: E. coli BL21(DE3) carrying pET24b-rho, purified (HiTrap Q, heparin, Superdex 200)
T1 sequence (P0AG30 whole entry, the tested form may be a part): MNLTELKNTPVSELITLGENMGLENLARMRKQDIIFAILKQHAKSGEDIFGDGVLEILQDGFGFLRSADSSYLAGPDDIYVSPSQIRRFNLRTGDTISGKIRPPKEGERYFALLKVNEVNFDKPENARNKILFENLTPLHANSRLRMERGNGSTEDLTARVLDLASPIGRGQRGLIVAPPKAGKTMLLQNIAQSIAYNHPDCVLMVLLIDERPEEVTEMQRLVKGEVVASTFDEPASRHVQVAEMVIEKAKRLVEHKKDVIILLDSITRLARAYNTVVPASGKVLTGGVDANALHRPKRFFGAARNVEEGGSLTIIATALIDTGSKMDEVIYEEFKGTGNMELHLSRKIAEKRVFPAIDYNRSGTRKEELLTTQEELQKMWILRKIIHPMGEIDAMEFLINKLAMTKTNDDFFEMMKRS
Assay: SEC; gel filtration of the complex assembled by mixing purified Rho and Rof at a ratio of 1:1
Details: both partners purified

B1: Rof (Rho-off, YaeO), E. coli (natural protein)
chain: MNDTYQPINCDDYDNLELACQHHLMLTLELKDGEKLQAKASDLVSRKNVEYLVVEAAGETRELRLDKITSFSHPEIGTVVVSES
notes: Protein Rof (YaeO), E. coli, expressed from pET22b-rof; In the cryo-EM map density was absent for Rof residues 1-5; No removal of the tag is described; also called EcRof; source: E. coli BL21(DE3) transformed with pET22b-rof, purified (Ni-NTA, Superdex 200)
binding result: binds
